T1: PUF4 RNA-binding domain (Saccharomyces cerevisiae, UniProt P25339 537-888)
T1 sequence: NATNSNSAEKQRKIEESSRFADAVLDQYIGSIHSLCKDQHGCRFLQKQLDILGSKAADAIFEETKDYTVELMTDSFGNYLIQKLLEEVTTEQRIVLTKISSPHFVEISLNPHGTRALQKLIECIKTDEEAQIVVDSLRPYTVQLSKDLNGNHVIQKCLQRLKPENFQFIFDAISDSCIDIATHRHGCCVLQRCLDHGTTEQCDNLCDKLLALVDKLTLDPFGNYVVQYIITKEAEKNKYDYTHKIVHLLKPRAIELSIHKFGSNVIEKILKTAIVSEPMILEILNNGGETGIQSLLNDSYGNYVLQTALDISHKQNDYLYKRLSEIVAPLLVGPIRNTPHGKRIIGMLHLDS


target: T1, PUF4 RNA-binding domain; assay: Mg; RNA-MaP; 20 mM Na-HEPES pH 7.4, 30 mM KOAc, 0.75 mM MgCl2, 0.1% Tween-20, 5% glycerol, 0.1 mg/mL BSA, 2 mM DTT; 25 C; 0.0125-409.6 nM protein; settings: tags: N-His6-TEV cleaved; C-SNAP kept, Cy3B-labelled; label: tethered on chip by stalled RNA polymerase

| Binder | Kd [nM] |
| --- | --- |
| UCUCUUUGUUCAUAUCUCUU (ssRNA) [Ib_S1_P3E.1_K3.1_C3.1_H3.1_[A4T]_A3.1_[T5C]_F3.1_T3.1] | 682 |
| Ic_S2_P4E.1_K4.1_C4.1_H4.1_A4.1_[T5G]_[A6C]_[T7A]_F4.1_[A9T]_T4.1 (ssRNA) RNA: UUUGAUUAAUAUGAUAUCGUUCUUUCUUGUAGCAUUUUCUUUCUCGAUAUCAUAUUAAUCUUU | 9.32 |
| Ic_S2_P4E.1_K4.1_C4.1_H4.1_A4.1_[T5G]_[A6C]_F4.1_[T8A]_[A9G]_T4.1 (ssRNA) RNA: UUUGAUUAAUAUGAUAUCGUUCUUUCUUGUAGCUAGUUCUUUCUCGAUAUCAUAUUAAUCUUU | 846 |
| Ic_S2_P4E.1_K4.1_C4.1_H4.1_A4.1_[T5C]_[A6G]_[T7C]_F4.1_[T8G]_[A9T]_T4.1 (ssRNA) RNA: UUUGAUUAAUAUGAUAUCGUUCUUUCUUGUACGCGUUUCUUUCUCGAUAUCAUAUUAAUCUUU | 332 |
| Ic_S2_P4E.1_K4.1_C4.1_H4.1_A4.1_[T5G]_[A6C]_F4.1_[T8C]_T4.1 (ssRNA) RNA: UUUGAUUAAUAUGAUAUCGUUCUUUCUUGUAGCUCAUUCUUUCUCGAUAUCAUAUUAAUCUUU | 266 |
| Ic_S2_P4E.1_K4.1_C4.1_H4.1_A4.1_[T5G]_[A6C]_F4.1_[T8G]_[A9G]_T4.1 (ssRNA) RNA: UUUGAUUAAUAUGAUAUCGUUCUUUCUUGUAGCUGGUUCUUUCUCGAUAUCAUAUUAAUCUUU | 709 |
| Ic_S2_P4E.1_K4.1_C4.1_H4.1_A4.1_[T5G]_[A6T]_[T7A]_F4.1_T4.1 (ssRNA) RNA: UUUGAUUAAUAUGAUAUCGUUCUUUCUUGUAGUAUAUUCUUUCUCGAUAUCAUAUUAAUCUUU | 2.26 |
| Ic_S2_P4E.1_K4.1_C4.1_H4.1_A4.1_[T5G]_[A6T]_[T7G]_F4.1_[T8C]_[A9T]_T4.1 (ssRNA) RNA: UUUGAUUAAUAUGAUAUCGUUCUUUCUUGUAGUGCUUUCUUUCUCGAUAUCAUAUUAAUCUUU | 478 |
| Ic_S2_P4E.1_K4.1_C4.1_H4.1_A4.1_[T5C]_[A6G]_[T7C]_F4.1_[A9G]_T4.1 (ssRNA) RNA: UUUGAUUAAUAUGAUAUCGUUCUUUCUUGUACGCUGUUCUUUCUCGAUAUCAUAUUAAUCUUU | 31.1 |
| Ic_S2_P4E.1_K4.1_C4.1_H4.1_A4.1_[T5G]_[A6T]_[T7A]_F4.1_[A9T]_T4.1 (ssRNA) RNA: UUUGAUUAAUAUGAUAUCGUUCUUUCUUGUAGUAUUUUCUUUCUCGAUAUCAUAUUAAUCUUU | 26.4 |
| Ic_S2_P4E.1_K4.1_C4.1_H4.1_A4.1_[T5C]_[A6G]_[T7C]_F4.1_[T8C]_[A9G]_T4.1 (ssRNA) RNA: UUUGAUUAAUAUGAUAUCGUUCUUUCUUGUACGCCGUUCUUUCUCGAUAUCAUAUUAAUCUUU | 501 |
| Ic_S2_P4E.1_K4.1_C4.1_H4.1_A4.1_[T5G]_[A6T]_[T7C]_F4.1_[T8C]_T4.1 (ssRNA) RNA: UUUGAUUAAUAUGAUAUCGUUCUUUCUUGUAGUCCAUUCUUUCUCGAUAUCAUAUUAAUCUUU | 527 |
| Ic_S2_P4E.1_K4.1_C4.1_H4.1_A4.1_[T5G]_[A6T]_[T7G]_F4.1_[T8C]_[A9G]_T4.1 (ssRNA) RNA: UUUGAUUAAUAUGAUAUCGUUCUUUCUUGUAGUGCGUUCUUUCUCGAUAUCAUAUUAAUCUUU | 651 |
| Ic_S2_P4E.1_K4.1_C4.1_H4.1_A4.1_[T5C]_[A6G]_[T7A]_F4.1_[T8C]_T4.1 (ssRNA) RNA: UUUGAUUAAUAUGAUAUCGUUCUUUCUUGUACGACAUUCUUUCUCGAUAUCAUAUUAAUCUUU | 407 |
| Ic_S2_P4E.1_K4.1_C4.1_H4.1_A4.1_[T5G]_[A6T]_[T7A]_F4.1_[T8A]_T4.1 (ssRNA) RNA: UUUGAUUAAUAUGAUAUCGUUCUUUCUUGUAGUAAAUUCUUUCUCGAUAUCAUAUUAAUCUUU | 407 |
| Ic_S2_P4E.1_K4.1_C4.1_H4.1_A4.1_[T5G]_[A6T]_F4.1_[T8C]_[A9C]_T4.1 (ssRNA) RNA: UUUGAUUAAUAUGAUAUCGUUCUUUCUUGUAGUUCCUUCUUUCUCGAUAUCAUAUUAAUCUUU | 257 |
| Ic_S2_P4E.1_K4.1_C4.1_H4.1_A4.1_[T5C]_[A6G]_[T7C]_F4.1_[T8C]_[A9T]_T4.1 (ssRNA) RNA: UUUGAUUAAUAUGAUAUCGUUCUUUCUUGUACGCCUUUCUUUCUCGAUAUCAUAUUAAUCUUU | 81.6 |
| Ic_S2_P4E.1_K4.1_C4.1_H4.1_A4.1_[T5G]_[A6T]_[T7C]_F4.1_[T8C]_[A9G]_T4.1 (ssRNA) RNA: UUUGAUUAAUAUGAUAUCGUUCUUUCUUGUAGUCCGUUCUUUCUCGAUAUCAUAUUAAUCUUU | 732 |
| Ic_S2_P4E.1_K4.1_C4.1_H4.1_A4.1_[T5G]_[A6T]_[T7C]_F4.1_[T8C]_[A9C]_T4.1 (ssRNA) RNA: UUUGAUUAAUAUGAUAUCGUUCUUUCUUGUAGUCCCUUCUUUCUCGAUAUCAUAUUAAUCUUU | 473 |
| Ic_S2_P4E.1_K4.1_C4.1_H4.1_A4.1_[T5C]_[A6G]_[T7C]_F4.1_[T8G]_[A9C]_T4.1 (ssRNA) RNA: UUUGAUUAAUAUGAUAUCGUUCUUUCUUGUACGCGCUUCUUUCUCGAUAUCAUAUUAAUCUUU | 573 |
| Ic_S2_P4E.1_K4.1_C4.1_H4.1_A4.1_[T5G]_[A6T]_[T7C]_F4.1_[T8G]_[A9C]_T4.1 (ssRNA) RNA: UUUGAUUAAUAUGAUAUCGUUCUUUCUUGUAGUCGCUUCUUUCUCGAUAUCAUAUUAAUCUUU | 598 |
| Ic_S2_P4E.1_K4.1_C4.1_H4.1_A4.1_[T5G]_[A6T]_F4.1_[T8G]_[A9C]_T4.1 (ssRNA) RNA: UUUGAUUAAUAUGAUAUCGUUCUUUCUUGUAGUUGCUUCUUUCUCGAUAUCAUAUUAAUCUUU | 588 |
| Ic_S2_P4E.1_K4.1_C4.1_H4.1_A4.1_[T5G]_[A6T]_F4.1_[T8C]_[A9G]_T4.1 (ssRNA) RNA: UUUGAUUAAUAUGAUAUCGUUCUUUCUUGUAGUUCGUUCUUUCUCGAUAUCAUAUUAAUCUUU | 550 |

| Binder | Kd [nM] |
| --- | --- |
| Ic_S2_P4E.1_K4.1_C4.1_H4.1_A4.1_[T5C]_[A6G]_[T7C]_F4.1_[T8A]_[A9T]_T4.1 (ssRNA) RNA: UUUGAUUAAUAUGAUAUCGUUCUUUCUUGUACGCAUUUCUUUCUCGAUAUCAUAUUAAUCUUU | 235 |
| Ic_S2_P4E.1_K4.1_C4.1_H4.1_A4.1_[T5G]_[A6C]_F4.1_[A9T]_T4.1 (ssRNA) RNA: UUUGAUUAAUAUGAUAUCGUUCUUUCUUGUAGCUUUUUCUUUCUCGAUAUCAUAUUAAUCUUU | 30.4 |
| Ic_S2_P4E.1_K4.1_C4.1_H4.1_A4.1_[T5G]_[A6C]_[T7A]_F4.1_T4.1 (ssRNA) RNA: UUUGAUUAAUAUGAUAUCGUUCUUUCUUGUAGCAUAUUCUUUCUCGAUAUCAUAUUAAUCUUU | 1.41 |
| Ic_S2_P4E.1_K4.1_C4.1_H4.1_A4.1_[T5C]_[A6G]_[T7G]_F4.1_[T8C]_[A9C]_T4.1 (ssRNA) RNA: UUUGAUUAAUAUGAUAUCGUUCUUUCUUGUACGGCCUUCUUUCUCGAUAUCAUAUUAAUCUUU | 830 |
| Ic_S2_P4E.1_K4.1_C4.1_H4.1_A4.1_[T5C]_[A6G]_[T7G]_F4.1_[A9T]_T4.1 (ssRNA) RNA: UUUGAUUAAUAUGAUAUCGUUCUUUCUUGUACGGUUUUCUUUCUCGAUAUCAUAUUAAUCUUU | 109 |
| Ic_S2_P4E.1_K4.1_C4.1_H4.1_A4.1_[T5C]_[A6G]_[T7C]_F4.1_[A9C]_T4.1 (ssRNA) RNA: UUUGAUUAAUAUGAUAUCGUUCUUUCUUGUACGCUCUUCUUUCUCGAUAUCAUAUUAAUCUUU | 28.3 |
| Ic_S2_P4E.1_K4.1_C4.1_H4.1_A4.1_[T5G]_[A6T]_[T7C]_F4.1_T4.1 (ssRNA) RNA: UUUGAUUAAUAUGAUAUCGUUCUUUCUUGUAGUCUAUUCUUUCUCGAUAUCAUAUUAAUCUUU | 4.56 |
| Ic_S2_P4E.1_K4.1_C4.1_H4.1_A4.1_[T5G]_[A6T]_[T7A]_F4.1_[T8G]_[A9T]_T4.1 (ssRNA) RNA: UUUGAUUAAUAUGAUAUCGUUCUUUCUUGUAGUAGUUUCUUUCUCGAUAUCAUAUUAAUCUUU | 984 |
| Ic_S2_P4E.1_K4.1_C4.1_H4.1_A4.1_[T5G]_[A6T]_F4.1_[T8A]_[A9T]_T4.1 (ssRNA) RNA: UUUGAUUAAUAUGAUAUCGUUCUUUCUUGUAGUUAUUUCUUUCUCGAUAUCAUAUUAAUCUUU | 148 |
| Ic_S2_P4E.1_K4.1_C4.1_H4.1_A4.1_[T5G]_[A6T]_[T7C]_F4.1_[T8C]_[A9T]_T4.1 (ssRNA) RNA: UUUGAUUAAUAUGAUAUCGUUCUUUCUUGUAGUCCUUUCUUUCUCGAUAUCAUAUUAAUCUUU | 121 |
| Ic_S2_P4E.1_K4.1_C4.1_H4.1_A4.1_[T5G]_[A6C]_F4.1_[A9G]_T4.1 (ssRNA) RNA: UUUGAUUAAUAUGAUAUCGUUCUUUCUUGUAGCUUGUUCUUUCUCGAUAUCAUAUUAAUCUUU | 208 |
| Ic_S2_P4E.1_K4.1_C4.1_H4.1_A4.1_[T5G]_[A6C]_F4.1_[A9C]_T4.1 (ssRNA) RNA: UUUGAUUAAUAUGAUAUCGUUCUUUCUUGUAGCUUCUUCUUUCUCGAUAUCAUAUUAAUCUUU | 52.2 |
| Ic_S2_P4E.1_K4.1_C4.1_H4.1_A4.1_[T5G]_[A6T]_[T7C]_F4.1_[T8G]_[A9T]_T4.1 (ssRNA) RNA: UUUGAUUAAUAUGAUAUCGUUCUUUCUUGUAGUCGUUUCUUUCUCGAUAUCAUAUUAAUCUUU | 288 |
| Ic_S2_P4E.1_K4.1_C4.1_H4.1_A4.1_[T5G]_[A6T]_[T7A]_F4.1_[T8A]_[A9T]_T4.1 (ssRNA) RNA: UUUGAUUAAUAUGAUAUCGUUCUUUCUUGUAGUAAUUUCUUUCUCGAUAUCAUAUUAAUCUUU | 342 |
| Ic_S2_P4E.1_K4.1_C4.1_H4.1_A4.1_[T5G]_[A6C]_F4.1_[T8A]_T4.1 (ssRNA) RNA: UUUGAUUAAUAUGAUAUCGUUCUUUCUUGUAGCUAAUUCUUUCUCGAUAUCAUAUUAAUCUUU | 111 |
| Ic_S2_P4E.1_K4.1_C4.1_H4.1_A4.1_[T5G]_[A6T]_[T7C]_F4.1_[A9C]_T4.1 (ssRNA) RNA: UUUGAUUAAUAUGAUAUCGUUCUUUCUUGUAGUCUCUUCUUUCUCGAUAUCAUAUUAAUCUUU | 149 |
| Ic_S2_P4E.1_K4.1_C4.1_H4.1_A4.1_[T5C]_[A6G]_[T7C]_F4.1_[T8C]_T4.1 (ssRNA) RNA: UUUGAUUAAUAUGAUAUCGUUCUUUCUUGUACGCCAUUCUUUCUCGAUAUCAUAUUAAUCUUU | 22.8 |
| Ic_S2_P4E.1_K4.1_C4.1_H4.1_A4.1_[T5G]_[A6T]_F4.1_[A9G]_T4.1 (ssRNA) RNA: UUUGAUUAAUAUGAUAUCGUUCUUUCUUGUAGUUUGUUCUUUCUCGAUAUCAUAUUAAUCUUU | 95.3 |
| Ic_S2_P4E.1_K4.1_C4.1_H4.1_A4.1_[T5G]_[A6C]_F4.1_[T8C]_[A9G]_T4.1 (ssRNA) RNA: UUUGAUUAAUAUGAUAUCGUUCUUUCUUGUAGCUCGUUCUUUCUCGAUAUCAUAUUAAUCUUU | 988 |
| Ic_S2_P4E.1_K4.1_C4.1_H4.1_A4.1_[T5G]_[A6T]_[T7C]_F4.1_[A9T]_T4.1 (ssRNA) RNA: UUUGAUUAAUAUGAUAUCGUUCUUUCUUGUAGUCUUUUCUUUCUCGAUAUCAUAUUAAUCUUU | 41.9 |
| UCUCUUUGCAUGUAUCUCUU (ssRNA) [Ib_S1_P3E.1_K3.1_C3.1_H3.1_[T3C]_A3.1_[A6G]_F3.1_T3.1] | 535 |
| UCUCUUUGUGUGUAUCUCUU (ssRNA) [Ib_S1_P3E.1_K3.1_C3.1_H3.1_[A4G]_A3.1_[A6G]_F3.1_T3.1] | 178 |
| UCUCUUUGUGUCUAUCUCUU (ssRNA) [Ib_S1_P3E.1_K3.1_C3.1_H3.1_[A4G]_A3.1_[A6C]_F3.1_T3.1] | 983 |
